From paper doi:10.1101/494930
Read-outs that look alike come from different tables or passages of the source.

Assays:
[1] = target: BiP-His6 (WT-BiP, aa 19-637) (human) (UniProt P11021); assay: BLI
[2] = target: BiP-His6 (WT-BiP, aa 19-637) (human) (UniProt P11021); assay: BLI; remark: listed apart in the source

Chain of BiP-His6 (WT-BiP, aa 19-637) (human) (P11021 19-637): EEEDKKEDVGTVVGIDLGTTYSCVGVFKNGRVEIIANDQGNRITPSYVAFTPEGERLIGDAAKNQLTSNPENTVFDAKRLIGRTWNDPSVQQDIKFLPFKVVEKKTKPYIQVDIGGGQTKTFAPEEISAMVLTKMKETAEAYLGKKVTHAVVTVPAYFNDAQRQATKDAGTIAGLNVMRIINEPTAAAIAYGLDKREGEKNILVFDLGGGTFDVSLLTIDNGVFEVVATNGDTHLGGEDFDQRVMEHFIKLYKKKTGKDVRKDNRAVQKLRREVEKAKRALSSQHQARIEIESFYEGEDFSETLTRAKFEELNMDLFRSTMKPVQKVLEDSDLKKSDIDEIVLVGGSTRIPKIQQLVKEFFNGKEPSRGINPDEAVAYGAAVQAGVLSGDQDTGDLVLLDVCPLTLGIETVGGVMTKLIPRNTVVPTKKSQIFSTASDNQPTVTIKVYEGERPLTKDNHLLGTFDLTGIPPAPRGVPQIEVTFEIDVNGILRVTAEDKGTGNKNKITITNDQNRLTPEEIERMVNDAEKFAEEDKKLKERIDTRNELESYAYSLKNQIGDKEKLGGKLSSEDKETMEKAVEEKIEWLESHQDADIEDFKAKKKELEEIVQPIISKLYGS

Kd [1]: 10.2 µM
Kd [2]: 18 µM
Substance: E234G-HYPE (aa 102-458) (from UniProt Q9BVA6) (enzyme)
